Assay results from patent US20040006782A1.

Biological target: nicotinic acetylcholine receptor containing the alpha6 subunit (mouse, native in brain of wild type animals) (mouse), Q9R0W9
Sequence (Q9R0W9 31-494, chain 1 of 2): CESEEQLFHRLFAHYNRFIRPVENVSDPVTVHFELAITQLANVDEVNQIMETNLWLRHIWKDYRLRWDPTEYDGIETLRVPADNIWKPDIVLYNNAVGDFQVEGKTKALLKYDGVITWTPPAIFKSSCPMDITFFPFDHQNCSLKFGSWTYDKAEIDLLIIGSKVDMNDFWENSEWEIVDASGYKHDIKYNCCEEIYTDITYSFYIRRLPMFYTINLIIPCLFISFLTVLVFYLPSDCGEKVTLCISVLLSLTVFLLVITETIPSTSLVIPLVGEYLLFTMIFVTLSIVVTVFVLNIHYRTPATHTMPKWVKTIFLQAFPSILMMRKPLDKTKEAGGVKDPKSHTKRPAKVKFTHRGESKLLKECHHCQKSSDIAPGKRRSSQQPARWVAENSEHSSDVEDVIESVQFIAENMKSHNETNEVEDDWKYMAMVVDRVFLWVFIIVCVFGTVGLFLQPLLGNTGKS
Sequence (Q9ERK7 26-501, chain 2 of 2, further chain): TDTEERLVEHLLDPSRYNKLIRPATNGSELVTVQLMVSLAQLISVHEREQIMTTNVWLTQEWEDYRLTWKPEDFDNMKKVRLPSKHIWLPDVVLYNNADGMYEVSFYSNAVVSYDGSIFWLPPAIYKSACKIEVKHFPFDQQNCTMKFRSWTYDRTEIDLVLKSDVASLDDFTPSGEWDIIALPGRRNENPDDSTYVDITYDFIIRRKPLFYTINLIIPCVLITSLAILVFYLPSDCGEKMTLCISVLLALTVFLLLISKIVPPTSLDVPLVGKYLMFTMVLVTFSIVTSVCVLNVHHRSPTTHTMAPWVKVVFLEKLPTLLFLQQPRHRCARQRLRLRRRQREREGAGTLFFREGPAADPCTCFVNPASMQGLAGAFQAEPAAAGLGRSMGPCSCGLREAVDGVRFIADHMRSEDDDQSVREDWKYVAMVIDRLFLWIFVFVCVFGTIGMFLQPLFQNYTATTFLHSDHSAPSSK

How did the share of epibatidine binding sites sensitive to αCtxMII turn out when GCCSNPVCHLEHSNLC (modifications not checked) [α-conotoxin MII, P56636 49-64] was run?
The share of epibatidine binding sites sensitive to αCtxMII was 20%.
